Data published in the supplement of paper PMC10567573.

B1: SPDEF (parent)
chain: YPEDSSWAAKAPGASSREEPPEEP
B2: WEE1 (parent)
chain: INPFTPDSLLLHSSGQCRRRKRTY

Variants of: B1
Assay: protein stability index of a GFP-peptide fusion (GPS, HEK-293T) (PSI 1-6); higher = more stable
Conditions: c terminus: a fixed tail appended
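Further: lentivirally expressed fusions sorted by FACS into six bins by GFP to DsRed ratio, PSI derived from sequencing read proportions per bin multiplied by bin number.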

| Variant | protein stability index |
| --- | --- |
| S5M | 4.58 |
| S5E | 5.72 |
| S5H | 3.99 |
| S5R | 4.26 |
| S5K | 4.49 |
| S5F | 3.86 |
| S5A | 4.69 |
| S5P | 4.06 |
| S5Q | 4.03 |
| S5V | 4.71 |
| S5N | 4.16 |
| S5W | 3.99 |
| S5T | 4.55 |
| S5C | 3.24 |
| Y1F | 3.03 |
| Y1D | 5.97 |
| Y1T | 5.68 |
| Y1H | 5.7 |
| Y1S | 5.55 |
| Y1L | 5.79 |
| Y1V | 5.76 |
| Y1K | 5.73 |
| Y1M | 5.93 |
| Y1C | 5.04 |
| Y1N | 5.56 |

| Variant | protein stability index |
| --- | --- |
| K10H | 3.26 |
| K10N | 4.19 |
| K10Q | 3.11 |
| K10Y | 1.79 |
| K10T | 3.36 |
| K10F | 2.79 |
| K10C | 2.56 |
| K10A | 2.79 |
| K10I | 3.65 |
| K10S | 3.69 |
| S6W | 1.27 |
| S6F | 1.84 |
| S6T | 4.57 |
| S6N | 4.9 |
| S6I | 2.51 |
| S6E | 5.03 |
| S6Y | 3.85 |
| S6H | 4.38 |
| S6V | 2.94 |
| S6A | 3.6 |
| A8D | 5.61 |
| A8R | 3.28 |
| A8I | 3.72 |
| A8L | 4.72 |
| A8P | 5.38 |

| Variant | protein stability index |
| --- | --- |
| A8F | 3.33 |
| A8C | 4.09 |
| A8H | 2.87 |
| A8N | 4.45 |
| A8Q | 4.34 |
| A8Y | 3.17 |
| G13L | 4.09 |
| G13E | 4.05 |
| G13T | 3.91 |
| G13N | 4.22 |
| G13P | 3.94 |
| G13A | 3.64 |
| G13D | 3.36 |
| G13Y | 3.49 |
| G13F | 3.87 |
| G13Q | 4.07 |
| A11E | 3.99 |
| A11H | 4.13 |
| A11K | 3.9 |
| A11N | 4.59 |
| A11F | 3.71 |
| A11D | 4.51 |
| A11W | 3.56 |
| A11I | 3.51 |
| A11G | 3.68 |

| Variant | protein stability index |
| --- | --- |
| A11L | 3.76 |
| A11S | 4.01 |
| A11M | 2.63 |
| A11Y | 3.75 |
| A11P | 4.6 |
| A11R | 4.78 |
| E3A | 2.01 |
| E3R | 3.78 |
| E3Y | 2.37 |
| E3V | 4.09 |
| E3D | 4.24 |
| E3M | 2.49 |
| E3L | 4.69 |
| E3K | 3.9 |
| E3F | 2.99 |
| E3S | 2.66 |
| E3W | 2.18 |
| E3P | 3.15 |
| E3G | 2.72 |
| E3Q | 3.24 |
| E3N | 2.49 |
| E3T | 3.82 |
| E3I | 4.92 |
| E3H | 3.05 |
| P2N | 5.78 |

| Variant | protein stability index |
| --- | --- |
| P2F | 5.57 |
| P2I | 2.53 |
| P2M | 5.18 |
| P2A | 1.79 |
| P2D | 5.73 |
| P2R | 5.43 |
| P2K | 5.1 |
| P2G | 3.9 |
| P2H | 2.25 |
| P2W | 4.68 |
| P2C | 1.94 |
| P2T | 2.95 |
| P12M | 3.68 |
| P12F | 3.59 |
| P12C | 3.31 |
| P12T | 4.58 |
| P12R | 3.76 |
| P12I | 3.62 |
| P12N | 3.89 |
| P12S | 4.16 |
| P12Q | 4.18 |
| P12A | 4.12 |
| P12D | 3.97 |
| P12L | 3.33 |
| P12H | 4.11 |

| Variant | protein stability index |
| --- | --- |
| S16D | 4.23 |
| S16P | 3.72 |
| S16V | 3.78 |
| S16K | 4.51 |
| S16M | 4.67 |
| S16N | 3.53 |
| S16H | 3.92 |
| S16L | 4.36 |
| S16Q | 2.88 |
| S16I | 3.86 |
| S16T | 2.85 |
| S16F | 4.2 |
| S16A | 3.72 |
| S16C | 3.83 |
| W7R | 5.96 |
| W7V | 5.52 |
| W7L | 5.68 |
| W7P | 5.38 |
| W7F | 5.86 |
| W7E | 5.88 |
| W7H | 5.95 |
| W7T | 5.98 |
| W7N | 5.91 |
| W7S | 5.79 |
| W7Y | 5.92 |

| Variant | protein stability index |
| --- | --- |
| W7M | 4.42 |
| W7A | 5.85 |
| W7D | 6 |
| D4I | 3.25 |
| D4P | 2.09 |
| D4N | 2.4 |
| D4T | 2.39 |
| D4Q | 3.09 |
| A9V | 3.82 |
| A9T | 4.32 |
| A9P | 4.23 |
| A9R | 4.36 |
| A9E | 5.42 |
| A9Q | 4.04 |
| A9K | 3.97 |
| A9W | 3.11 |
| A9D | 5.61 |
| A9Y | 2.88 |
| A9M | 4.11 |
| A9H | 3.4 |
| A9I | 3.23 |
| A14R | 4.16 |
| A14H | 3.77 |
| A14E | 3.88 |
| A14W | 3.31 |

| Variant | protein stability index |
| --- | --- |
| A14Y | 3.89 |
| A14M | 3.15 |
| A14Q | 4.08 |
| A14S | 4.95 |
| A14D | 4.37 |
| A14P | 3.94 |
| A14T | 4.03 |
| A14I | 4.56 |
| S15F | 2.86 |
| S15L | 3.58 |
| S15N | 3.9 |
| S15H | 4.72 |
| S15I | 4.11 |
| S15K | 3.23 |
| S15D | 4.61 |
| S15T | 3.97 |
| S15Q | 3.47 |
| S15V | 2.7 |
| S15Y | 3.1 |
| S15G | 3.53 |
| S15R | 3.96 |
| S15P | 4.36 |
| S15E | 4.14 |
| S15M | 3.77 |

Variants of: B2
Assay: as above
Conditions: c terminus: a fixed tail appended

| Variant | protein stability index |
| --- | --- |
| C17W | 3.35 |
| C17Y | 3.04 |
| T23I | 2.78 |
| T23Q | 3.42 |
| T23N | 3.5 |
| T23M | 3.6 |
| T23G | 3.87 |
| T23Y | 3.38 |
| T23E | 3.37 |
| T23F | 3.36 |
| T23K | 4.29 |
| T23D | 4.11 |
| T23S | 3.93 |
| T23H | 3.7 |
| T23P | 3.26 |
| T23W | 2.79 |
| T23L | 3.5 |
| T23R | 3.56 |
| T23V | 3.06 |
| T23A | 3.79 |
| T23C | 2.7 |
| Y24L | 3.04 |
| Y24C | 3.8 |

| Variant | protein stability index |
| --- | --- |
| Y24E | 3.13 |
| Y24S | 4.45 |
| Y24K | 4.27 |
| Y24Q | 3.69 |
| Y24F | 3.12 |
| Y24H | 3.75 |
| Y24I | 3.01 |
| Y24T | 3.96 |
| Y24G | 4.07 |
| Y24M | 3.48 |
| Y24W | 3.36 |
| Y24A | 4.33 |
| Y24R | 4.52 |
| Y24D | 4.27 |
| Y24P | 3.81 |
| Y24N | 3.75 |
| Y24V | 3.95 |
| R20C | 2.5 |
| R20Y | 2.61 |
| R20H | 3.62 |
| R20W | 1.82 |
| R20N | 3.45 |
| R20T | 3.32 |

| Variant | protein stability index |
| --- | --- |
| R20P | 3.12 |
| R20G | 3.41 |
| R20Q | 2.81 |
| R20I | 2.95 |
| R20V | 2.94 |
| R20S | 2.97 |
| R20D | 3.12 |
| R20F | 2.48 |
| R20K | 3.23 |
| R20E | 3.15 |
| R20M | 2.85 |
| R20L | 2.75 |
| R20A | 3.08 |
| K21N | 3.59 |
| K21I | 3 |
| K21A | 3.77 |
| K21H | 3.38 |
| K21G | 3.58 |
| K21T | 2.83 |
| K21S | 3.18 |
| K21D | 2.9 |
| K21V | 3.16 |
| K21M | 3.25 |

| Variant | protein stability index |
| --- | --- |
| K21F | 2.42 |
| K21E | 3.16 |
| K21C | 2.02 |
| K21L | 2.72 |
| K21P | 3.08 |
| K21W | 2.4 |
| K21R | 3.11 |
| K21Q | 2.46 |
| K21Y | 2.48 |
| R19K | 3.32 |
| R19L | 3.03 |
| R19Y | 2.83 |
| R19D | 3.52 |
| R19V | 2.69 |
| R19I | 3.88 |
| R19G | 3.34 |
| R19P | 3.03 |
| R19F | 2.62 |
| R19W | 2.66 |
| R19H | 3.32 |
| R19Q | 3.27 |
| R19S | 3.78 |
| R19C | 3.01 |

| Variant | protein stability index |
| --- | --- |
| R19A | 3.08 |
| R19N | 3.38 |
| R19M | 2.91 |
| R19E | 3.8 |
| R19T | 2.78 |
| R18G | 3.31 |
| R18L | 3.2 |
| R18F | 2.9 |
| R18S | 3.41 |
| R18N | 3.12 |
| R18H | 3.39 |
| R18K | 3.26 |
| R18W | 2.29 |
| R18A | 3.46 |
| R18D | 3.78 |
| R18M | 2.81 |
| R18T | 3.48 |
| R18P | 3.57 |
| R18E | 3.67 |
| R18Y | 3.58 |
| R18C | 2.94 |
| R18Q | 3.63 |
| R18I | 2.86 |

| Variant | protein stability index |
| --- | --- |
| R18V | 3.83 |
| R22L | 2.92 |
| R22Y | 2.87 |
| R22P | 3.23 |
| R22G | 3.55 |
| R22T | 3.45 |
| R22D | 3.37 |
| R22Q | 3.19 |
| R22S | 3.31 |
| R22V | 2.8 |
| R22A | 3.67 |
| R22I | 3.11 |
| R22N | 3.91 |
| R22H | 3.5 |
| R22K | 3.59 |
| R22F | 2.71 |
| R22W | 2.27 |
| R22C | 3.17 |
| R22E | 3.1 |
| R22M | 3.08 |
